This passage reports Kd and koff results from paper PMC7040040 (2020).

As a reminder, the Kd is the concentration at which binding is half-saturated. As a reminder, the koff is a measure of how fast the partners let go of each other. Read a high koff as fast dissociation.

Non-standard residues stand in square brackets, D forms with d. No end group written: not given here. pGlu = O=C1CC[C@@H](C(=O)O)N1

Assay [1] concerns the target T1, PBD-C06 (final humanized, de-immunized antibody with the complement mutation K322A) (human). In words: SPR. Background: SPR reads the build-up and loss of mass on a sensor chip optically.
The target in assay [2] is T1, PBD-C06 (final humanized, de-immunized …). In words: SPR. This is another data set of the same source.

T1 sequence (chain, as listed by the source K322A, chain 1 of 2): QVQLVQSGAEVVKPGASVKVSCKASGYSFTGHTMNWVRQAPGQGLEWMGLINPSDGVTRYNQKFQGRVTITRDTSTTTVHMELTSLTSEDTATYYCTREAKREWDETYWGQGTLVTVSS
T1 sequence (chain, as listed by the source K322A, chain 2 of 2): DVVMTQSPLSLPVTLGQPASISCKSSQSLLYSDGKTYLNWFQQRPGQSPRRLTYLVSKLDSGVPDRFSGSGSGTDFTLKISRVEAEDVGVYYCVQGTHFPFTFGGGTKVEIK

FRHDSGYEVHHQKLV [Aβ(4–18) monomer] gave a Kd in assay [1] greater than 50000 nM.
With [pGlu]FRHDSGYEVHHQKLV [pE3-Aβ(3–18) monomer], the koff in assay [2] worked out at 0.00393 s⁻¹. The molecule further registered a Kd in assay [1] of 7.86 nM.
